Reference: article PMC7658486

Target: rainbow trout IL-2 (IL-2A), FLAG-tagged, from insect cells (rainbow trout (Oncorhynchus mykiss))
Test: SEC; Superose 12 column, PBS (-), 0.5 ml/min, 10-15 μg protein purified from insect cell supernatant; calibrated with standard proteins

stoichiometry N: 2
Substance: rainbow trout IL-2 (IL-2A), FLAG-tagged, from insect cells (ligand)
